Laboratory results published in PMC10819763, “Reconstitution of the phosphodiesterase 6 maturation process important for photoreceptor cell function” (The Journal of Biological Chemistry, 2023).
Values joined by “and” are separate entries in the source; they are usually repeats but may differ in a detail not shown here. Equal entries are not always repeated.

B1: human cone PDE6C (aa 1-830), expressed as an EGFP fusion protein and released with HRV-3C protease (enzyme, UniProt P51160 1-830, looked up)
chain: MGEINQVAVEKYLEENPQFAKEYFDRKLRVEVLGEIFKNSQVPVQSSMSFSELTQVEESALCLELLWTVQEEGGTPEQGVHRALQRLAHLLQADRCSMFLCRSRNGIPEVASRLLDVTPTSKFEDNLVGPDKEVVFPLDIGIVGWAAHTKKTHNVPDVKKNSHFSDFMDKQTGYVTKNLLATPIVVGKEVLAVIMAVNKVNASEFSKQDEEVFSKYLNFVSIILRLHHTSYMYNIESRRSQILMWSANKVFEELTDVERQFHKALYTVRSYLNCERYSIGLLDMTKEKEFYDEWPIKLGEVEPYKGPKTPDGREVNFYKIIDYILHGKEEIKVIPTPPADHWTLISGLPTYVAENGFICNMMNAPADEYFTFQKGPVDETGWVIKNVLSLPIVNKKEDIVGVATFYNRKDGKPFDEHDEYITETLTQFLGWSLLNTDTYDKMNKLENRKDIAQEMLMNQTKATPEEIKSILKFQEKLNVDVIDDCEEKQLVAILKEDLPDPRSAELYEFRFSDFPLTEHGLIKCGIRLFFEINVVEKFKVPVEVLTRWMYTVRKGYRAVTYHNWRHGFNVGQTMFTLLMTGRLKKYYTDLEAFAMLAAAFCHDIDHRGTNNLYQMKSTSPLARLHGSSILERHHLEYSKTLLQDESLNIFQNLNKRQFETVIHLFEVAIIATDLALYFKKRTMFQKIVDACEQMQTEEEAIKYVTVDPTKKEIIMAMMMTACDLSAITKPWEVQSQVALMVANEFWEQGDLERTVLQQQPIPMMDRNKRDELPKLQVGFIDFVCTFVYKEFSRFHKEITPMLSGLQNNRVEWKSLADEYDAKMKVIEEEA
notes: human PDE6C, cone cGMP phosphodiesterase catalytic subunit, truncation of the C-terminal 28 residues (aa 1-830); GFP and PDE6C cDNAs were spliced with primers containing the HRV-3C site and a FLAG tag, cloned into pFastBac HT A by Gibson assembly; also called EGFP-PDE6C; source: Sf9 cells (baculovirus), alone or co-expressed with AIPL1 or with AIPL1 and Pγ; purified (EGFP-nanobody resin, HRV-3C …)
B2: His6-tagged bovine Pγr (rod PDE6 inhibitory γ-subunit), bacterially expressed (natural protein, UniProt P04972 1-87, looked up)
chain: MNLEPPKAEIRSATRVMGGPVTPRKGPPKFKQRQTRQFKSKPPKKGVQGFGDDIPGMEGLGTDITVICPWEAFNHLELHELAQYGII
notes: also called rod Pγ; purified recombinant Pγr

Tests used:
[1] = molecular target: the molecule itself; assay: SEC; PDE6C co-expressed with AIPL1, eluted from EGFP-nanobody resin with HRV-3C, preincubated with 3 mM ATP for 10 min at 25 °C; Superose 6 10/300 GL in 10 mM HEPES pH 7.5, 150 mM NaCl, 1 mM TCEP, 2 mM MgCl2
[2] = molecular target: T1, trypsin-activated PDE6AB from mouse retina extract (mouse (endogenous in retina), UniProt P27664 1-859; P23440 1-856); assay: inhibition of enzyme activity (cGMP hydrolysis); trypsin-treated mouse retina extract inhibited by purified recombinant Pγr; 20 mM Tris-HCl pH 7.5, 120 mM NaCl, 2 mM MgSO4, 1 mM BME, 10 μM [3H]cGMP, 25 °C; conditions: one partner purified
T1 construct: mouse rod PDE6 catalytic subunit PDE6A, after trypsin treatment of the retina lysate; mouse rod PDE6 catalytic subunit PDE6B, after trypsin treatment of the retina lysate; Trypsin treatment degrades the endogenous Pγ; The retina extract also holds a few percent of cone PDE6C activity; also called mouse rod PDE6; source: endogenous, C57BL/J mouse retina lysate, trypsin-treated; copies: 1 + 1

[3] = molecular target: B1; assay: inhibition of enzyme activity (cGMP hydrolysis); purified PDE6C (co-expressed with AIPL1) inhibited by purified recombinant Pγr; 20 mM Tris-HCl pH 7.5, 120 mM NaCl, 2 mM MgSO4, 1 mM BME, 10 μM [3H]cGMP, 25 °C; conditions: both partners purified

T1 sequence (P27664 whole entry, chain 1 of 2): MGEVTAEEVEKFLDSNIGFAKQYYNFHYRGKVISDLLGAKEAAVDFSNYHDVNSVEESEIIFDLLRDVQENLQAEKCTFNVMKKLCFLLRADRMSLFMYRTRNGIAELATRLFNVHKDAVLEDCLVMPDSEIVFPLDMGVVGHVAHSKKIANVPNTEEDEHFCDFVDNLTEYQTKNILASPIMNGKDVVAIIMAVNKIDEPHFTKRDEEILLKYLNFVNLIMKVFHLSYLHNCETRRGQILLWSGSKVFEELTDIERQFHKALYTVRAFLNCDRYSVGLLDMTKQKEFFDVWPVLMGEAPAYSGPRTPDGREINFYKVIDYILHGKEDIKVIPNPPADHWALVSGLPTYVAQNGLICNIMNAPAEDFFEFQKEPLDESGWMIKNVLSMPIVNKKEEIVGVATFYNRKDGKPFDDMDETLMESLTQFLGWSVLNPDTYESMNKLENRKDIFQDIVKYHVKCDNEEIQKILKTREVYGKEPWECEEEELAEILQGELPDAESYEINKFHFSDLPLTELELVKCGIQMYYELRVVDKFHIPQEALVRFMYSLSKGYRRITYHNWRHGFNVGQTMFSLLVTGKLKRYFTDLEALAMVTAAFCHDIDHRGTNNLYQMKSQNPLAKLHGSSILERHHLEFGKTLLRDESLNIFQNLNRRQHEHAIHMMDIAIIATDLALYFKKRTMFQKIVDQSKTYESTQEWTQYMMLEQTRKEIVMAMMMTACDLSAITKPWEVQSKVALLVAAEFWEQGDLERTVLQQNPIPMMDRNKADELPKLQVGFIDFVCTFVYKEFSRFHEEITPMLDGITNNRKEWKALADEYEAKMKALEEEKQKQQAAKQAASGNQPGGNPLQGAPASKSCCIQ
T1 sequence (P23440 whole entry, chain 2 of 2): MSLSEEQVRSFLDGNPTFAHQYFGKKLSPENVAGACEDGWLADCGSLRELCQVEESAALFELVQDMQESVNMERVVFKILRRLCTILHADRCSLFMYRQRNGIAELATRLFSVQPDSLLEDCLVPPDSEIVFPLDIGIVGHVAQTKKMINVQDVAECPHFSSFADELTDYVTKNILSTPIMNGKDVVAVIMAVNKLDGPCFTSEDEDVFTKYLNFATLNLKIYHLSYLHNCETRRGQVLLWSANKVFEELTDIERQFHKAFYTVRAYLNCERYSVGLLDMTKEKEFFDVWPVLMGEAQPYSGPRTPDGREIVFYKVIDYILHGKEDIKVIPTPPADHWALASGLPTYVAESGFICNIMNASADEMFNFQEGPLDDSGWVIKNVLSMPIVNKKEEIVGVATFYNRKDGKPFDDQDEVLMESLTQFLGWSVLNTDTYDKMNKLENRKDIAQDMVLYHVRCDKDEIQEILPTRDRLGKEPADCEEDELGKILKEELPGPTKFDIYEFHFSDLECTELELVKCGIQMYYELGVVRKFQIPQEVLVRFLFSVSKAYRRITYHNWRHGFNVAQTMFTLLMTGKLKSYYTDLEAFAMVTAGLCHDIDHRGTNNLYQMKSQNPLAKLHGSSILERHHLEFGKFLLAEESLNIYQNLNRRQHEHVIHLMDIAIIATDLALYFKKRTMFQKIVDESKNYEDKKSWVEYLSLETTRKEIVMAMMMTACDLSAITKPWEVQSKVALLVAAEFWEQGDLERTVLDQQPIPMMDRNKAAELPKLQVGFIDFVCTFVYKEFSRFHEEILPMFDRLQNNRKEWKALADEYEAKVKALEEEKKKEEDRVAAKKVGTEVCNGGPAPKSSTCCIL

B1
stoichiometry N [1]: 2

B2
Ki [2]: 0.089 nM | Ki [3]: 0.095 nM and 0.088 nM
